Experimental data published in patent publication US11732048B2, “Anti-axl antagonistic antibodies” (BERGEN TEKNOLOGIOVERFØRING AS, priority 2016, dated 2023).
Each block holds one molecule with its values, some of them ahead of it.

Key:
[1] = molecular target: T1, human Axl (rhAxl-Fc chimera) (Homo sapiens, UniProt P30530); assay: Biacore kinetic analysis (surface plasmon resonance) on immobilised rhAxl-Fc; assay type: binding; conditions: rhAxl immobilized on Biacore sensor chip, 25° C., 1:1 Langmuir binding model
T1 construct: Soluble recombinant antigens corresponding to the extracellular domains of members of the human TAM receptor family; Fc; purchased R&D Systems 154-AL
Method: Kinetic analysis of murine MAb 10G5 interacting with rhAxl immobilized on the surface of the Biacore sensor chip. Overlay plots of sensograms for different antibody concentrations (0.3-166.7 nM for murine 10G5) are shown. The precise kinetic analysis was performed using BIA evaluation software and curve fitting according to 1:1 Langmuir binding model. […]
Affinity determination of anti-Axl antibody 10G5 was performed at 25° C. by surface plasmon resonance measurements using Biacore 3000 instrument (GE Healthcare). As a solid antigen-coated surface, a sensor chip CM5 with immobilized rhAxl-Fc chimera (R&D Systems, Cat. no. 154-AL) at density 190 RU was used.
For the kinetics measurements, different concentrations of anti-Axl antibodies (from 0.3 to 666.7 nM) in HBS-EP buffer (Biacore, Cat. no. BR-1001-88) were injected at flow rate of 30 μL/min with 3 min injection time followed by 5 min dissociation (buffer alone). After each cycle, the surface was regenerated by 30 sec injection of a regeneration solution (10 mM HCl, 1 M NaCl) at flow rate 50 μL/min.
The kinetic association (on-rate, kon) and dissociation (off-rate, koff) rates were calculated using BIAevaluation software and 1:1 Langmuir binding model. The equilibrium dissociation constant (KD) was calculated as the koff/kon ratio. The half-life (t1/2) of the formed antibody-antigen complexes was calculated as the ln 2/koff ratio. […]

[2] = molecular target: T2, Mer (rhMer-Fc chimera) (Homo sapiens, UniProt Q12866); assay: Biacore binding analysis on immobilised human Mer; conditions: 10 μg/mL in HBS-EP, 25° C.
T2 construct: Soluble recombinant antigens corresponding to the extracellular domains of members of the human TAM receptor family; Fc; purchased R&D Systems 891-MR
T2 sequence (Q12866 21-505 limits assumed): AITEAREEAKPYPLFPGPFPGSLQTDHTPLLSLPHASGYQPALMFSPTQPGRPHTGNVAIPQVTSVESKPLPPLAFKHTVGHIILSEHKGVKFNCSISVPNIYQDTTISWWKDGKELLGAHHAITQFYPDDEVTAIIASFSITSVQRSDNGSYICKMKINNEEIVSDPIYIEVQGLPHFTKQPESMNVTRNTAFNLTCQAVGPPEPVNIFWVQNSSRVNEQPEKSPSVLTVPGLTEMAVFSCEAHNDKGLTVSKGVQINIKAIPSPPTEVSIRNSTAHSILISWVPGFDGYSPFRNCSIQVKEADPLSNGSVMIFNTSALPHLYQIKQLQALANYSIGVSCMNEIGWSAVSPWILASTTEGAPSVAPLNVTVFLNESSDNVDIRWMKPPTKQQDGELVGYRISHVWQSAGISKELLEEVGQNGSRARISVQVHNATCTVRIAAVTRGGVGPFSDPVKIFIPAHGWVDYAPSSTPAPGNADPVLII
Method: All binding experiments were performed using Biacore 3000 instrument (GE Healthcare) at 25° C. Soluble recombinant antigens corresponding to the extracellular domains of members of the human TAM receptor family, Axl (rhAxl-Fc chimera; R&D Systems, Cat. no. 154-AL), Mer (rhMer-Fc chimera; R&D Systems, Cat. no. 891-MR) and Tyro3 (rhTyro3/Dtk-Fc chimera; R&D Systems, Cat. no. 859-DK) were immobilized on the surface of CM5 sensor chip using amine coupling at the surface density of 393.0, 303.6 and 364.0 resonance units (RU), respectively. The Biacore run was performed in an automatic mode using Binding analysis wizard. Samples containing MAb 10G5 at concentration 10 μg/mL in HBS-EP buffer (GE Healthcare) were injected over the surfaces with immobilized antigens at flow rate of 30 μL/min for 3 min (association) followed by 5 min dissociation.

[3] = molecular target: T3, Hs-Axl-Fc (immobilized Axl-Fc) (Homo sapiens, UniProt P30530); assay: Biacore binding competition assays, two injections (Example 22)
T3 construct: Fc
Text: Sensor chip with immobilised Axl: Hs-Axl-Fc (638.2 RU), Mm-Axl-Fc (334.5 RU), Rhe-Axl-Fc (350.2 RU)
In this experiment, a first antibody was allowed to bind to saturation. A second antibody was then applied and its ability to bind was monitored.
If the second antibody recognizes the same (or overlapping) epitope as the first antibody then binding will be blocked. If the second antibody recognizes a different epitope then binding will be detected at the same level as if no first antibody was present.
The ability of Gas6 to block antibody binding was also tested, using Gas6 at 10 μg/mL in HBS-EP.
All tests were performed in parallel on Hs-Axl-Fc, Mm-Axl-Fc and Rhe-Axl-Fc surfaces.
See FIG. 1 for a list of the pairs that were tested (in this list Contr-1 is incorrectly labeled YW367 instead of YW327.6S2var). All antibodies were at 25 μg/mL in HBS-EP.
• 2. Perform Biacore experiments at 25° C. • 3. In the instrument control software choose Direct Binding, and select settings for two injections as shown below. • 4. […] Store the template & the result file, start the analysis.

[4] = test system: A549 tumours; assay: A549 human NSCLC xenograft in mice (Examples 14, 16, 17, 18); assay type: in vivo, mouse; conditions: nude mice, 20 mg/kg i.p. twice weekly, after four weeks of treatment, versus vehicle
Text: SCID mice were implanted subcutaneously (s.c.) into the flank with 5×10^6 A549 cells resuspended in serum-free medium/Matrigel (1:1).

[5] = test system: Mv4-11 tumours; assay: Mv4-11 human AML xenograft in nude mice; assay type: in vivo, mouse; conditions: 30 mg/kg i.p. twice weekly, after three weeks of treatment, versus vehicle
Method: To evaluate the anti-tumour activity of anti-Axl chimeric antibodies in a model of haematological cancer, we used a mouse xenograft model of human acute myeloid leukaemia (AML). The human AML Mv4-11 cells (ATCC #CRL-9591) cells were propagated in suspension in IMDM medium supplemented with 10% FBS, 2 mM L-Glutamine, 100 U/ml penicillin and 100 μg/ml streptomycin. Nude mice were implanted s.c. into the flank with 5×10^6 Mv4-11 cells resuspended in the mixture of serum-free IMDM medium and Matrigel (1:1). When the tumour size reached 200 mm^3 (Day 0 in FIG. 15), the animals were randomized and treated with either vehicle (sterile PBS) or anti-Axl chimeric antibody 10G5 at 30 mg/kg, by i.p. injections twice weekly for 4 weeks.

- Off-rate (koff) [1]: 0.000439 s⁻¹
- On-rate (kon) [1]: 829000 M⁻¹ s⁻¹
- Binding to recombinant human Mer [2]: no significant binding
- Competition with 1H12 for binding to Axl [3]: No competition
B1: murine 10G5: mouse monoclonal anti-human Axl antibody from hybridoma WR-10G5-E5; VH SEQ ID NO: 28, VL SEQ ID NO: 29 (antibody, listed as Mus musculus, V domains shown)
VH: QVQLQQSGAELVRPGASVKLSCKASGYSFTDFYINWVRQRPGQGLEWIARIFPGGDNTYYNEKFKGKATLTAEESSSTAYIQLSSLTSEDSAVYFCARRGLYYAMDYWGQGISVTVSS
VL: DVLMTQTPLSLPVSLGDQASISCRSSQSLVHSNGIPYLHWYLQKPGQSPKLLIYRVSNRFSGVPDRFSGSGSGTDFTLKISRVEAEDLGVYFCSQGTHVPPTFGGGTKLEIK
modifications: (1)..(118) Mus musculus 10G5 VH domain; (1)..(112) Mus musculus 10G5 VL domain

- Off-rate (koff) [1]: 0.000169 s⁻¹
- On-rate (kon) [1]: 1.64e+06 M⁻¹ s⁻¹
B2: c10G5: chimeric (mouse variable/human constant) IgG1 antibody with the 10G5 VH and VL (antibody, V domains shown)
VH: B1 VH
VL: B1 VL
- Inhibition of A549 tumour growth [4]: around 40%
- Inhibition of Mv4-11 tumour growth [5]: around 75%
